Assay results from patent US20260209362A1 (VIB VZW, published 2026).
Changes are numbered by the printed parent chain.

B1: anti-IL-12Rβ2 VHH clone 20450 (VHH, not shown: small tags and cut ends)
VHH: QVQLQESGGGLVQPGGSLRLSCAASGFTISNYAMSWVRQAPGKGLEWVSSIGSNIASTNYADSVKGRFTISRDNAKNTLYLQMNSLKPEDTAVYYCAKASQNHSPPGQGTQVTVSS
notes: tested as periplasmic extract; also called 2CRM61
B2: anti-IL-12Rβ2 VHH clone 20460 (VHH, not shown: small tags and cut ends)
VHH: B1 VHH with P14A, I29L, S30G, N31S, G52S, N54S, I55G, A56T, S57N, Q111P
notes: tested as periplasmic extract; also called 3CRM63
B3: anti-IL-12Rβ2 VHH clone 3CAM57 (VHH, not shown: small tags and cut ends)
VHH: QVQLQESGGGLVQAGGSLRLSCTPSGRTFSTLAMGWFRQAPGKEREVVATISWSGGRTYYASSVKSRFTISRDNAKNTAYLQMNSLRPDDTAVYYCAARGTDYGAYDYWGQGTQVTVSS
notes: tested as periplasmic extract; also called 20512; 3CAMS7
B4: anti-IL-12Rβ2 VHH clone 2CAMS52 (VHH, not shown: small tags and cut ends)
VHH: QVQLQESGGGLVQPGASLRLSCATSGPTLSTYAMGWFRQAPGKEREVVATISWSGGRVTYVDSVKGRFTISRDNAKNTAYLQMNRLRPDDTAVYTCAARESDYGAYDYWGQGTQVTVSS
notes: tested as periplasmic extract; also called 20535; 2CAMSSZ
B5: anti-IL-12Rβ2 VHH clone 3CAM1 (VHH, not shown: small tags and cut ends)
VHH: QVQLQESGGGLVQAGGSLRLSCAASGRTFGSHRMGWFRQAPGQEREFVAAIAWRGGTQYYTDSVKGRFTISRDNANNTVYLQMNSLKPEDAAVYYCVAGEGSSWGDITDPRRYVFWGQGTQVTVSS
notes: tested as periplasmic extract
B6: anti-IL-12Rβ2 VHH clone 3CAM65 (VHH, not shown: small tags and cut ends)
VHH: QVQLQESGGGLVQAGGSLRLSCAPSGRTFTTYVMGWFRQAPGKEREFVAHISWSGGRTYYADSVKGRFTISRDNAKNTSYLQMNSLKPEDTAVYYCAAARSDAVRIGYAEGYEYWGQGTQVTVSS
notes: tested as periplasmic extract; also called 20513
B7: anti-IL-12Rβ2 VHH clone 3CRH17 (clone ID 20376) (VHH, not shown: small tags and cut ends)
VHH: QVQLQESGGGLVQAGGSLVLSCAASGSAALIFLMSWYRQAPGKQRELVAEVSRYGSTTYADSVEGRFTISRDNAKNIVDLQMNSLKPEDTAVYYCKADQYYGDSLRSSWGRGTQVTVSS
notes: periplasmic extract
B8: anti-IL-12Rβ2 VHH clone 3CRH67 (clone ID 20387) (VHH, not shown: small tags and cut ends)
VHH: B7 VHH with V92A
notes: periplasmic extract

Each binder was assayed against T1, biotinylated recombinant mouse IL-12Rβ2 (mouse, UniProt P97378 24-637, random biotinylated) (assay: ELISA, periplasmic extract on biotinylated mIL-12Rβ2, signal over control wells).
T1 construct: Recombinant protein produced in-house, biotinylated; also called mIL-12RB2; mouse IL-12RB2
T1 sequence: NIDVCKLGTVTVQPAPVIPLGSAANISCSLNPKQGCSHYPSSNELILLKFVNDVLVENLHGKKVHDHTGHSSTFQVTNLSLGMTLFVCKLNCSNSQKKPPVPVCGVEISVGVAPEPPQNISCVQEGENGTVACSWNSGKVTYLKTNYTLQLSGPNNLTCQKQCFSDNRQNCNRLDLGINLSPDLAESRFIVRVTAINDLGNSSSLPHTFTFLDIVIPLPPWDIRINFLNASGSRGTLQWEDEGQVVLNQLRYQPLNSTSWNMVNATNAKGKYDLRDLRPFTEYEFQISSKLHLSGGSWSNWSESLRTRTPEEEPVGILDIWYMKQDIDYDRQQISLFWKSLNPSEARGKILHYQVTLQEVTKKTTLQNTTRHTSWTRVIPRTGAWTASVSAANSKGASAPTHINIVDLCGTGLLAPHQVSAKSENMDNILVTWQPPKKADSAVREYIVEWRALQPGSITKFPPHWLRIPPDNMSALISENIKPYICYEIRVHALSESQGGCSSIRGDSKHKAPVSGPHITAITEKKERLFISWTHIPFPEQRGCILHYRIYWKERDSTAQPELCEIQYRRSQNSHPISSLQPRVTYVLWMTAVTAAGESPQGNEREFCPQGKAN

Compared with B1, B2 is lower in “ELISA binding mIL-12RB2/control” value: 18 ratio for the first, 16.6 ratio for the second.

What follows are binders tested against T2, biotinylated recombinant human IL-12Rβ2 (produced in-house) (human, UniProt Q99665 24-622, random biotinylated) (assay: ELISA, P.E. VHH on biotinylated hIL-12RB2, signal ratio to control well).
T2 construct: also called hIL-12RB2; hIL12RB2
T2 sequence: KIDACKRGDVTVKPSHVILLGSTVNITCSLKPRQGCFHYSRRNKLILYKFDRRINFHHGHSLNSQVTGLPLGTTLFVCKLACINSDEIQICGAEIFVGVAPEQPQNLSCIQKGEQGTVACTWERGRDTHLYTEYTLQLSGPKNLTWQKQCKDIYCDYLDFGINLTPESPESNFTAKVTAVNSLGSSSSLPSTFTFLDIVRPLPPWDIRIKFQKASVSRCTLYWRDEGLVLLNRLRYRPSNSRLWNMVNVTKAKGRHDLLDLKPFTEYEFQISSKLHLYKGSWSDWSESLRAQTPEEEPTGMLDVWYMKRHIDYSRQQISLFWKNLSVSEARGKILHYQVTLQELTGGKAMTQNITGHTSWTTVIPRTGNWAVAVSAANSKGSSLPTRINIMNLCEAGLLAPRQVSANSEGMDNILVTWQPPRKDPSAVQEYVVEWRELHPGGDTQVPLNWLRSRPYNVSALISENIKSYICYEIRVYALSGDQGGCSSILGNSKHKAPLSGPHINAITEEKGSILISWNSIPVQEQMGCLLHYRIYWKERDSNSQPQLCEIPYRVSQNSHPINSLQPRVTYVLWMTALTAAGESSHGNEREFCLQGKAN

Compared with B3, B4 is lower in “ELISA hIL12RB2/control” value: 1.31 for the first, 0.97 for the second.

Going from B5 to B6, the “ELISA hIL12RB2/control” value rises from 1.2 to 1.25.

The binders below were run against T3, biotinylated recombinant human IL-12Rβ2 (human, UniProt Q99665 24-622, random biotinylated) (assay: ELISA, P.E., biotinylated antigen).
T3 construct: Recombinant protein produced in-house; also called hIL-12RB2; human IL-12RB2
T3 sequence: T2 sequence

First: B7
Second: B8
The “ELISA hIL-12RB2/control” value of the first is lower: 9.8 for the first, 10 for the second.

Each binder was assayed against biotinylated recombinant human IL-12Rβ2 (human) (UniProt Q99665) (assay: ELISA, periplasmic extract on biotinylated hIL-12Rβ2, signal over control wells).

Compared with B1, B2 is higher in ELISA binding hIL-12RB2/control: 2.18 for the first, 2.43 for the second.

Each binder was assayed against biotinylated recombinant mouse IL-12Rβ2 (mouse) (UniProt P97378) (assay: ELISA, P.E., biotinylated antigen).

First: B7
Second: B8
The ELISA mIL-12RB2/control of the first is higher: 2.85 for the first, 2.11 for the second.

Each binder was assayed against T2, biotinylated recombinant human IL-12Rβ2 … (assay: ELISA, P.E. VHH on biotinylated hIL-12RB2).

B3: no binding.
B4: no binding.
B5: no binding.
B6: no binding.

What follows are binders tested against T4, mouse IL-12Rβ2 expressed on cells (mouse, UniProt P97378 24-874) (assay: flow cytometry, P.E. VHH on HEK293T cells stably expressing mIL-12RB2).
T4 construct: HEK293T cells, stably transduced (cDNA NM_008354); also called mIL-12RB2
T4 sequence: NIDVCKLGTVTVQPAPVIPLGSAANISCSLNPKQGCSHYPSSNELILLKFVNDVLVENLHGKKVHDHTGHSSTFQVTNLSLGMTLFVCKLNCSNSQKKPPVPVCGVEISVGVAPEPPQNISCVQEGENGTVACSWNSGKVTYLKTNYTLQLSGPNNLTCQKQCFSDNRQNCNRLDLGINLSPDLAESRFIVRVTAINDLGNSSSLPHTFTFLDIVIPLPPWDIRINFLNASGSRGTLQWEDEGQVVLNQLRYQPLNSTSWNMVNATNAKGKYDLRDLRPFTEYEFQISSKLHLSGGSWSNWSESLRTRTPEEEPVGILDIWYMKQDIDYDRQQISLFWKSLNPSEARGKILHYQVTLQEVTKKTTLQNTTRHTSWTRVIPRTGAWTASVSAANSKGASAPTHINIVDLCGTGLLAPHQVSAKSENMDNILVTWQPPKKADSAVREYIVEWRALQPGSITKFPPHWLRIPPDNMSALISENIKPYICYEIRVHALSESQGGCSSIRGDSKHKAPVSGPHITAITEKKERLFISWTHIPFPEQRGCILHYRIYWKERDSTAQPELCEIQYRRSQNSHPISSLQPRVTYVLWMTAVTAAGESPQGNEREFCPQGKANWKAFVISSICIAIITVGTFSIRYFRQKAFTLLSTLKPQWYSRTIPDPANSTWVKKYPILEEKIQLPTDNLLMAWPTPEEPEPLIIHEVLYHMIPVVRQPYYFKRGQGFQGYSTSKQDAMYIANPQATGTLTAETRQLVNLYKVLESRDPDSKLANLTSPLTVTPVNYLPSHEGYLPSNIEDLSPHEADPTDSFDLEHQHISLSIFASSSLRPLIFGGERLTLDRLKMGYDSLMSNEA

First: B3
Second: B4
The “% cells bound” value of the first is higher: 62.2% for the first, 60.9% for the second.

First: B5
Second: B6
The “% cells bound” value of the first is higher: 63% for the first, 57.9% for the second.

Going from B3 to B4, the dMFI falls from 351 to 342.

Going from B5 to B6, the dMFI falls from 376 to 315.

Each binder was assayed against T3, biotinylated recombinant human IL-12Rβ2 (assay: BLI, P.E., off-rate ranking).

First: B7
Second: B8
The Response of the first is lower: 0.53 for the first, 0.617 for the second.

B7 and B8 are within 1.5-fold of each other in koff: 0.00446 s⁻¹ for the first, 0.00495 s⁻¹ for the second.

What follows are binders tested against T4, mouse IL-12Rβ2 expressed on cells (assay: flow cytometry, P.E. VHH on HEK293T cells expressing mIL-12RB2).

Compared with B3, B4 is lower in “% cells bound” value: 62.2% for the first, 60.9% for the second.

Going from B5 to B6, the “% cells bound” value falls from 63% to 57.9%.

Going from B3 to B4, the dMFI falls from 351 to 342.

Compared with B5, B6 is lower in dMFI: 376 for the first, 315 for the second.

What follows are binders tested against T5, biotinylated recombinant mouse IL-12Rβ2 (produced in-house) (mouse, UniProt P97378 24-637, random biotinylated) (assay: ELISA, P.E. VHH on biotinylated mIL-12RB2, signal ratio to control well).
T5 construct: also called mIL-12RB2; mIL12RB2
T5 sequence: T1 sequence

Going from B3 to B4, the “ELISA mIL12RB2/control” value falls from 47.4 to 5.41.

Compared with B5, B6 is higher in “ELISA mIL12RB2/control” value: 3.3 for the first, 5.98 for the second.
